Results taken from patent US20200088726A1.

Target: ESO 9V WT-A*02:01 pMHC (human)
Experiment: BLI (OctetRED 384), pMHC immobilised on streptavidin biosensor, soluble 1G4 TCR in 1:2 dilution series from 24 µM; fit R² = 0.9992

1G4 TCR
Kd: 5.12 µM
